T1: recombinant cynomolgus monkey PD-1 expressed with a C-terminal myc-myc-hexahistidine tag (cynomolgus monkey (Macaca fascicularis))
T1 construct: monomeric; also called MfPD-1-MMH
T1 chain: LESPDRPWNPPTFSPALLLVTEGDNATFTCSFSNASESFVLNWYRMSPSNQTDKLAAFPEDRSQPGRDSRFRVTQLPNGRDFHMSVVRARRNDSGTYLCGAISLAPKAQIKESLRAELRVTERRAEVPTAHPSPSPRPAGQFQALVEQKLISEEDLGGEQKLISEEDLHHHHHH

T2: monkey PD-1 with mFc (monkey)
T2 construct: also called monkey PD-1-mFc; monkey PD-1 dimer
T2 chain: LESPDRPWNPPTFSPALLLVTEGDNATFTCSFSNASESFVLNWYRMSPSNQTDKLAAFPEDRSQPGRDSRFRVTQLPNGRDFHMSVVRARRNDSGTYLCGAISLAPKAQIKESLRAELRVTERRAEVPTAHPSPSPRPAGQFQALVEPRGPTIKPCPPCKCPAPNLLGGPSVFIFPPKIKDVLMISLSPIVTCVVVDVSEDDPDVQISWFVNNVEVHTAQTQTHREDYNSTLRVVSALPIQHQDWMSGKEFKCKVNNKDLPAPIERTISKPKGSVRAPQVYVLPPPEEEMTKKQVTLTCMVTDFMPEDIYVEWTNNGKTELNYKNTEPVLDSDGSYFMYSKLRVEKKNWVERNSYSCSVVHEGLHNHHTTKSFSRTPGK


Experiments:
[1] = biological target: T3, recombinant human PD-1 expressed with a C-terminal myc-myc-hexahistidine tag (human); assay: SPR, mAb captured, 37C;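 also: rate constants from fitting sensorgrams to a 1:1 binding model, KD derived as kd divided by ka and half-life as ln2/(60·kd)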
T3 construct: monomeric; also called hPD-1-MMH; human PD-1-MMH

[2] = biological target: T4, human PD-1 dimer (human PD-1-mFc or human PD-1-hFc) (human, UniProt Q15116 25-170); assay: SPR, mAb captured, 25C;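 also: surface plasmon resonance on Biacore, PD-1 flowed over captured anti-PD-1 antibodies, rate constants from a 1:1 binding model fit, KD taken as kd/ka and t½ as ln2/(60·kd)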
T4 construct: also called hPD-1-mFc; hPD1-hFc

[3] = biological target: T4, human PD-1 dimer (human PD-1-mFc or …); assay: SPR, mAb captured, 37C
[4] = biological target: T1, recombinant cynomolgus monkey PD-1 …; assay: SPR, mAb captured, 25C;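 also: rates from fitting Biacore data for PD-1 binding to anti-PD-1 antibodies with a 1:1 model, KD computed as koff/kon and t½ as ln2/(60·koff)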
[5] = biological target: T1, recombinant cynomolgus monkey PD-1 …; assay: SPR, mAb captured, 37C
[6] = biological target: PD-1 chimera: extracellular domain of human PD-1 with trans-membrane and cytoplasmic domains of human CD300a, … (human, UniProt Q9UGN4 181-299, limits assumed); assay: cell-based or functional assay
monkey PD-1 with mFc [7] = biological target: T2, monkey PD-1 with mFc; assay: SPR, captured mAb, 25 C;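 also: purified anti-PD-1 antibodies tested on Biacore 4000 or T200 instruments, rate constants obtained via 1:1 binding model fit, with KD as kd/ka and half-life as ln2/(60·kd)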
monkey PD-1 with mFc [8] = biological target: T2, monkey PD-1 with mFc; assay: SPR, captured mAb, 37 C;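 also: Real-time Biacore surface plasmon resonance biosensor readout of PD-1 reagent binding to purified anti-PD-1 monoclonal antibodies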
[9] = biological target: T5, full length human PD-1 on HEK293/hPD-1 cells (human, UniProt Q15116 25-288); assay: FACS, 100 nM mAb, HEK293/hPD-1 cells;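 also: antibodies incubated with cells for 15-30 min on ice, bound antibody detected through a secondary F(ab′)2 by flow cytometry, with parental HEK293 cells tested in parallel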
[10] = biological target: T6, recombinant human PD-1 dimer expressed with a C-terminal mouse IgG2a Fc tag (human); assay: competition ELISA: 1.5 nM hPD-1-mFc to coated hPD-L1-hFc
T6 construct: also called hPD-1-mFc

[11] = biological target: T7, recombinant human PD-1 expressed with a C-terminal human IgG1 Fc tag (human); assay: SPR Biacore 3000: 100 nM hPD-1.hFc + 500 nM mAb to captured hPD-L1.mFc;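 also: inhibition study with anti-PD-1 mAbs, SPR responses tracked in real time and read at the close of each step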
T7 construct: also called hPD-1-hFc; hPD1-hFc

[12] = biological target: T8, recombinant human PD-L1 expressed with a C-terminal mouse IgG2a Fc tag (human); assay: SPR Biacore 3000: 500 nM mAb alone (no hPD-1.hFc) over captured hPD-L1.mFc surface, control
T8 construct: also called hPD-L1-mFc; hPD-L1.mFc

[13] = biological target: T5, full length human PD-1 on HEK293/hPD-1 …; assay: FACS, 100 nM mAb
[14] = biological target: T5, full length human PD-1 on HEK293/hPD-1 …; assay: FACS dose response, HEK293/hPD-1 cells
[15] = biological target: T9, dimeric biotinylated human PD-1 protein with a C-terminal human Fc tag (human, biotinylated (sites not given)); assay: competition ELISA: 200 pM biot-hPD-1-hFc to coated hPD-L1-mFc
T9 construct: also called biot-hPD-1-hFc

[16] = biological target: T6, recombinant human PD-1 dimer expressed …; assay: BLI Octet: 100 nM hPD-1-mFc + 500 nM mAb to captured hPD-L1-hFc

Binder	Kd [1]	koff [1]	kon [1]	t½ [1]	Kd [2]	koff [2]	kon [2]	t½ [2]	Kd [3]	koff [3]	kon [3]	t½ [3]	Kd [4]	koff [4]	kon [4]	t½ [4]	Kd [5]	koff [5]	kon [5]	t½ [5]	also measured
H4H7795N2 (antibody, human IgG4 S228P, kappa, V domains shown) VH: EVQVVESGGGLVEPGRSLRLSCKASGFTFDDYAMHWVRQTPGKALEWVSGISWSGNNIGYADSVKGRFTISKDDAKNSLYLQMNSLRPEDTALYYCTKDISITGTLDAFDVWGQGTMVTVSS VL: DIQMTQSPISVSASVGDRVTITCRASQGISNWLAWYQQKPGIAPKLLIYSASSLQSGVPSRFRGSGSGTDFTLTIGSLQPEDFATYYCQQAHSFPLTFGGGTKVEIKR	104 nM	0.00664 s⁻¹	64100 M⁻¹ s⁻¹	1.7 min	0.615 nM	9.25e-05 s⁻¹	150000 M⁻¹ s⁻¹	125 min	1.65 nM	0.000264 s⁻¹	160000 M⁻¹ s⁻¹	44 min	22.4 nM	0.00148 s⁻¹	65900 M⁻¹ s⁻¹	8 min	88.3 nM	0.00689 s⁻¹	78000 M⁻¹ s⁻¹	1.7 min	–
H4xH8992P (antibody, V domains shown, human IgG4 Fc with 2 or more amino acid changes (US20100331527)) VH: EVQLVESGGGLVQPGRSLRLSCVASGFALHDYAMHWVRQVPGKGLEWVSSISWNSGVIGYADSLKGRFTISRDNAKNSLYLQMNSLRAEDTALYYCAKGSGSYYVSWFDPWGQGTLVTVSS VL: not shown	–	–	–	–	–	–	–	–	–	–	–	–	–	–	–	–	–	–	–	–	Emax mean [%] @ 100 nM [6]: 178%; 100 nM Monkey PD-1-mFc Bound (RU) (monkey PD-1 with mFc [7]): 122 RU; Kd (monkey PD-1 with mFc [7]): 1.24 nM; t1/2 (monkey PD-1 with mFc [7]): 46 min; 100 nM Monkey PD-1-mFc Bound (RU) (monkey PD-1 with mFc [8]): 86 RU; Kd (monkey PD-1 with mFc [8]): 4.38 nM; t1/2 (monkey PD-1 with mFc [8]): 8 min; MFI [9]: 17500 MFI; % blocking at 200 nM antibody [10]: 93%; IC50 [10]: 1.3 nM; binding of the mixture (RU) [11]: 2 RU; 500 nM of anti-PD-1 monoclonal antibody (RU) [12]: 3 RU
H4xH9145P2 (antibody, V domains shown, Human IgG4 Fc with 2 or more amino acid changes (H4xH)) VH: QVQLVESGGGVVQPGRSLRLSCSASGFTFSAYAMHWVRQAPGKGLEWVAAISYGGSDKYYADSVKGRFTISRDNSKNTLYLQMNSLRTDDTAVYYCAKSAHWNFFFDYWGQGTLVTVSS VL: not shown	94 nM	0.0123 s⁻¹	131000 M⁻¹ s⁻¹	0.9 min	2.4 nM	0.000158 s⁻¹	65800 M⁻¹ s⁻¹	73 min	3.58 nM	0.000571 s⁻¹	160000 M⁻¹ s⁻¹	20 min	43.1 nM	0.00124 s⁻¹	28600 M⁻¹ s⁻¹	9.3 min	83.7 nM	0.0143 s⁻¹	171000 M⁻¹ s⁻¹	0.8 min	–
H4xH9008P (antibody, V domains shown, Human IgG4 Fc with 2 or more amino acid changes (H4xH)) VH: EVQLVESGGGLVRPGGSLRLSCAASGFTFSTYAMAWVRQTPGKGLEGVSAIGGSGDSTYYVDSVKGRFTISRDNSKSTLFLQMNSLRAEDTAVYYCVKVRNYDGSFDIWGQGTMVTVSS VL: not shown	62.6 nM	–	–	1.4 min	0.796 nM	–	–	412 min	≤ 0.181 nM	–	–	≥ 1160 min	23.8 nM	–	–	4.6 min	23.5 nM	–	–	0.8 min	–
H4H7798N (antibody, human IgG4 S228P, kappa, V domains shown) VH: EVQLLESGGVLVQPGGSLRLSCAASGFTFSNFGMTWVRQAPGKGLEWVSGISGGGRDTYFADSVKGRFTISRDNSKNTLYLQMNSLKGEDTAVYYCVKWGNIYFDYWGQGTLVTVSS VL: DIQMTQSPSSLSASVGDSITITCRASLSINTFLNWYQQKPGKAPNLLIYAASSLHGGVPSRFSGSGSGTDFTLTIRTLQPEDFATYYCQQSSNTPFTFGPGTVVDFRR	7.48 nM	0.0017 s⁻¹	227000 M⁻¹ s⁻¹	7 min	0.122 nM	5.4e-05 s⁻¹	441000 M⁻¹ s⁻¹	214 min	0.175 nM	0.000115 s⁻¹	660000 M⁻¹ s⁻¹	100 min	3.86 nM	0.000551 s⁻¹	143000 M⁻¹ s⁻¹	21 min	10.5 nM	0.00223 s⁻¹	213000 M⁻¹ s⁻¹	5 min	–
H2aM7794N (antibody, V domains shown, human variable regions, mouse IgG2a Fc; also called H2M7794N) VH: QLQLQESGPDLVKPSDTLSLTCTVSDDSISSTTYYWAWIRQPPGKGLEWIGSMSYNGNNYYNPSLKSRVAISAGTSQKQFSLKLTSVTAADTAVYHCARHLGYNGNWYPFDFWGQGILVTVSS VL: not shown	–	–	–	–	–	–	–	–	–	–	–	–	–	–	–	–	–	–	–	–	ratio of MFI HEK293/hPD-1 to HEK293 parental cells [13]: 71; Concentration (M) of Antibody at 150% activation [6]: 4.09e-08 M; Emax mean [%] @ 100 nM [6]: 170%; MFI [9]: 19100 MFI; EC50 [14]: 1.37 nM; Max Geom. Mean MFI @ 100 nM [14]: 16400 MFI; % blocking at 200 nM antibody [10]: 95%; IC50 [10]: 1.1 nM; % blocking at 50 nM antibody [15]: 99%; IC50 [15]: 0.23 nM; % Blocking [16]: 114%; binding of the mixture (nm) [16]: -0.01 nm
H4xH8999P (antibody, V domains shown, human IgG4 Fc with 2 or more amino acid changes (US20100331527)) VH: QLQLQESGPGLVQPSETLSLTCTVSGDSISSTAYHWDWIRQPPGKGLEWIGTITYNGNTYFNPSLKSRVTISVDTSKNQFSLKLLSMTAAETAVFYCARHLGYNSDFFPFDFWGQGTLVTVSS VL: not shown	–	–	–	–	–	–	–	–	–	–	–	–	–	–	–	–	–	–	–	–	Emax mean [%] @ 100 nM [6]: 217%; 100 nM Monkey PD-1-mFc Bound (RU) (monkey PD-1 with mFc [7]): 126 RU; Kd (monkey PD-1 with mFc [7]): 0.21 nM; t1/2 (monkey PD-1 with mFc [7]): 100 min; 100 nM Monkey PD-1-mFc Bound (RU) (monkey PD-1 with mFc [8]): 83 RU; Kd (monkey PD-1 with mFc [8]): 0.7 nM; t1/2 (monkey PD-1 with mFc [8]): 23 min; MFI [9]: 28900 MFI; % blocking at 200 nM antibody [10]: 88%; IC50 [10]: 1.3 nM; % Blocking [11]: 100%; binding of the mixture (RU) [11]: 0 RU; 500 nM of anti-PD-1 monoclonal antibody (RU) [12]: 1 RU
H4xH8999P (antibody, V domains shown, Human IgG4 Fc with 2 or more amino acid changes (H4xH)) VH: QLQLQESGPGLVQPSETLSLTCTVSGDSISSTAYHWDWIRQPPGKGLEWIGTITYNGNTYFNPSLKSRVTISVDTSKNQFSLKLLSMTAAETAVFYCARHLGYNSDFFPFDFWGQGTLVTVSS VL: not shown	15.7 nM	–	–	1.2 min	0.217 nM	–	–	96 min	0.596 nM	–	–	26 min	3.09 nM	–	–	8.7 min	9.41 nM	–	–	1.2 min	–
